Biological target: TNFα from R&D Systems (L929 cytotoxicity assay)
Test: cell-based or functional assay

B1: sTNFR-I 3D/N105 (receptor)
chain: DSVCPQGKYIHPQNNSICCTKCHKGTYLYNDCPGPGQDTDCRECESGSFTASENHLRHCLSCSKCRKEMGQVEISSCTVDRDTVCGCRKNQYRHYWSENLFQCFNCSLCLNGTVHLSCQEKQNTVCT
ED50 (ng/mL), L929 cytotoxicity assay, run #2, single data point: 413 ng/mL
